{
  "source": "paper PMC4113483",
  "target": "Mu-HSSKLQ-AMC (morpholinocarbonyl-His-Ser-Ser-Lys-Leu-Gln-7-amido-4-methylcoumarin), fluorogenic PSA substrate",
  "assay": "Spectrofluorimetric pre-steady-state (burst) and steady-state kinetics of AMC release (excitation 380 nm, emission 460 nm)",
  "conditions": "37.0 C, 100 mM NaCl, 10 mM CaCl2, 25 mM bis-tris-HCl and 25 mM tris-HCl between pH 6.5 and 9.0 (the buffer used at each pH is not stated)",
  "data": [
    {"substance": "Prostate-specific antigen (PSA, kallikrein-related peptidase 3, KLK3)", "values": [
      {"measurement": "pKES1, group 1 of PSA (unassigned; tentatively Lys95E of the kallikrein loop)", "setting": "pH 6.5-9.0", "result": 8.59, "unit": "pH units"},
      {"measurement": "pKES2, group 2 of PSA (unassigned; tentatively a histidine, possibly His57 or His172)", "setting": "pH 6.5-9.0", "result": 5.11, "unit": "pH units"},
      {"measurement": "pKU1, group 1 of PSA (unassigned; tentatively Lys95E of the kallikrein loop)", "setting": "pH 6.5-9.0", "result": 8.02, "unit": "pH units"},
      {"measurement": "pKU2, group 2 of PSA (unassigned; tentatively a histidine, possibly His57 or His172)", "setting": "pH 6.5-9.0", "result": 7.61, "unit": "pH units"},
      {"measurement": "Ks", "setting": "pH 6.5", "result": 490, "unit": "µM"},
      {"measurement": "Ks", "setting": "pH 7.0", "result": 120, "unit": "µM"},
      {"measurement": "Ks", "setting": "pH 7.5", "result": 62, "unit": "µM"},
      {"measurement": "Ks", "setting": "pH 8.0", "result": 42, "unit": "µM"},
      {"measurement": "Ks", "setting": "pH 8.5", "result": 55, "unit": "µM"},
      {"measurement": "Ks", "setting": "pH 9.0", "result": 75, "unit": "µM"}
    ]}
  ]
}
